Test results published in patent US20140142040A1.
Like-named read-outs stand apart in the source and are kept apart here.

Tests used:
[1] = biological target: T1, human activated protein C (human), P04070
T1 chain 1: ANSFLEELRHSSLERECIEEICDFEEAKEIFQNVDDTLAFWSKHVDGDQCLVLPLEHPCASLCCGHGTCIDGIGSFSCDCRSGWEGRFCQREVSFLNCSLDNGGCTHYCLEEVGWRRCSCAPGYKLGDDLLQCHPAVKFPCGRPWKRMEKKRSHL
T1 chain 2: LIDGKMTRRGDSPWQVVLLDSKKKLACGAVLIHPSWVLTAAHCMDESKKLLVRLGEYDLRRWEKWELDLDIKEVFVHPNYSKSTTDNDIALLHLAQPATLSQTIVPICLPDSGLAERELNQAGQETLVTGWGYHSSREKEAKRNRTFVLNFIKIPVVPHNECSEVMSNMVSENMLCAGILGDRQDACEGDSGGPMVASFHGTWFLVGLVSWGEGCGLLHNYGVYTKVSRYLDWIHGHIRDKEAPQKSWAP

[2] = biological target: T1, human activated protein C (human), …
[3] = biological target: T1, human activated protein C (human), …; assay: cell-based or functional assay
[4] = biological target: T1, human activated protein C (human), …
[5] = biological target: human factor XIa (human), P03951
[6] = biological target: T2, human plasmin (human), P00747
T2 chain: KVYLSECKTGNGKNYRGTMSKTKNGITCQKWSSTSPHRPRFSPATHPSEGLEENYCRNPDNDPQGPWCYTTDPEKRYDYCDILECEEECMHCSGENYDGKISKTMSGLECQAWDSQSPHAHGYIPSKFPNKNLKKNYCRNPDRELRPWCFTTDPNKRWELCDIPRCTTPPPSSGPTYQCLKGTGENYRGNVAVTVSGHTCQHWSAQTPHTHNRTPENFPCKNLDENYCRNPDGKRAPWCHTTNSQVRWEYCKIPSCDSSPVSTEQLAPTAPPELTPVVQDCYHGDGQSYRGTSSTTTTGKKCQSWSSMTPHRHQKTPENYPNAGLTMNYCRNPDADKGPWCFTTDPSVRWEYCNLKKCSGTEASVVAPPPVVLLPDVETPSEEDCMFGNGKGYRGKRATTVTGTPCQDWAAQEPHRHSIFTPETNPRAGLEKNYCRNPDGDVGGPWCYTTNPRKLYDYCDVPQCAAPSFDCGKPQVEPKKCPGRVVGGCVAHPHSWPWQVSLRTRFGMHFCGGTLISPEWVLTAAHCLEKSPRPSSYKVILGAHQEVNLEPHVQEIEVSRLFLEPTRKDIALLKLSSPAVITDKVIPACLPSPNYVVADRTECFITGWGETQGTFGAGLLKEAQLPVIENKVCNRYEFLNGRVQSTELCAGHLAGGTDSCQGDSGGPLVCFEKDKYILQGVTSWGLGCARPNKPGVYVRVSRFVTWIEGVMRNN

B1: DrKIn-I (Daboia russelii Kunitz Inhibitor-I), A8Y7N4 25-90 (protein)
chain: QDRPKFCNLAPESGRCRGHLRRIYYNPDSNKCEVFFYGGCGGNDNNFETRKKCRQTCGAPRKGRPT
modifications: not checked
B1 gave a Ki [1] of 0.053 nM, a kon [2] of 1.7e+07 M⁻¹ s⁻¹ and a fold reduction of the IC50 by heparin [3] of 25 fold. The Kd [4] was 2.6 nM, the koff [4] was 0.034 s⁻¹ and the kon [4] was 1.3e+07 M⁻¹ s⁻¹. The Ki [5] was 1.33 nM, the fold of Ki against the Ki for APC inhibition [5] was over 25 fold and the Ki [6] was 1.56 nM. For the same binder, the fold of Ki against the Ki for APC inhibition [6] was over 25 fold.
